Reference: patent US12440565

Biological target: CD40 on the surface of mature dendritic cells (mDC) (human) (UniProt P25942)
Experiment: cell-based or functional assay

Chain of CD40 on the surface of mature dendritic cells (mDC) (human) (P25942 21-277): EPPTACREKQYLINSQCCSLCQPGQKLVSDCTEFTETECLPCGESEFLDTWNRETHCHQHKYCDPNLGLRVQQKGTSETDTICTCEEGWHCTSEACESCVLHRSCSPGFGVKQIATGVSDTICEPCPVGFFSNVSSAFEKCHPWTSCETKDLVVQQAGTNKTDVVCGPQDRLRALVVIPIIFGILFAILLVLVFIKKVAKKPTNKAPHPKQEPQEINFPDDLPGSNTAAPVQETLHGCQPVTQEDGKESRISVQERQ

B1: Cifurtilimab (antibody, INN chains, looked up, V domains shown)
VH: EVQLVESGGGLVQPGGSLRLSCAASGYSFTGYYIHWVRQAPGKGLEWVARVIPNAGGTSYNQKFKGRFTLSVDNSKNTAYLQMNSLRAEDTAVYYCAREGIYWWGQGTLVTVSS
VL: DIQMTQSPSSLSASVGDRVTITCRSSQSLVHSNGNTFLHWYQQKPGKAPKLLIYTVSNRFSGVPSRFSGSGSGTDFTLTISSLQPEDFATYFCSQTTHVPWTFGQGTKVEIK
- CD83+ (%) of mDC at 0.001 µg/mL Cifurtilimab: 83.4%
- CD83+ (%) of mDC at 0.01 µg/mL Cifurtilimab: 84.6%
- CD83+ (%) of mDC at 0.1 µg/mL Cifurtilimab: 93.3%
- CD83+ (%) of mDC at 1 µg/mL Cifurtilimab: 94.1%
- CD83+ (%) of mDC at 3 µg/mL Cifurtilimab: 95.7%
- CD83+ (%) of mDC at 10 µg/mL Cifurtilimab: 95.7%
- CD83+ (%) of mDC, agonist at 2 µg/mL (control group 81.00): 93.2%
- CD83+ (%), Cifurtilimab together with Atezolizumab, batch 1 (control with Atezolizumab alone 92.69): 96.9%
- CD83+ (%), Cifurtilimab together with Atezolizumab, batch 2 (control with Atezolizumab alone 64.27): 92.3%
- CD83+ (%), Cifurtilimab together with Atezolizumab, batch 3 (control with Atezolizumab alone 89.18): 97.6%
- CD83+ (%), Cifurtilimab together with Atezolizumab, batch 4 (control with Atezolizumab alone 75.24): 96.1%
- IL-12p70 (pg/mL) at 0.001 µg/mL Cifurtilimab: 10.2 pg/mL
- IL-12p70 (pg/mL) at 0.01 µg/mL Cifurtilimab: 10 pg/mL
- IL-12p70 (pg/mL) at 0.1 µg/mL Cifurtilimab: 309 pg/mL
- IL-12p70 (pg/mL) at 1 µg/mL Cifurtilimab: 312 pg/mL
- IL-12p70 (pg/mL) at 3 µg/mL Cifurtilimab: 397 pg/mL
- IL-12p70 (pg/mL) at 10 µg/mL Cifurtilimab: 402 pg/mL
- IL-12p70 (pg/mL), Cifurtilimab together with Atezolizumab, batch 1 (control with Atezolizumab alone 4.1): 450 pg/mL
- IL-12p70 (pg/mL), Cifurtilimab together with Atezolizumab, batch 2 (control with Atezolizumab alone 4.8): 1220 pg/mL
- IL-12p70 (pg/mL), Cifurtilimab together with Atezolizumab, batch 3 (control with Atezolizumab alone 5.7): 1110 pg/mL
- IL-12p70 (pg/mL), Cifurtilimab together with Atezolizumab, batch 4 (control with Atezolizumab alone 5.0): 454 pg/mL
- IL-12p70 (pg/mL), agonist at 2 µg/mL (control group 50.0): 1490 pg/mL
- functional and activity indices of mDC (CD83, IL-12, T cell activation) against antibody concentration: > 0.1 µg/mL
- increase of IFN-γ secreting T cells over control, Cifurtilimab together with Atezolizumab: 21.8%
- increase rate of CD83 positive ratio over control, Cifurtilimab together with Atezolizumab: 19.1%
- mean CD83+ cells (%), Cifurtilimab together with Atezolizumab (control 80.35%): 95.7%
- mean IL-12 secretion, Cifurtilimab together with Atezolizumab (control 4.9 pg/mL): 746 pg/mL

B2: Mitazalimab (antibody, INN chains, looked up, V domains shown)
VH: EVQLLESGGGLVQPGGSLRLSCAASGFTFSTYGMHWVRQAPGKGLEWLSYISGGSSYIFYADSVRGRFTISRDNSENALYLQMNSLRAEDTAVYYCARILRGGSGMDLWGQGTLVTVSS
VL: QSVLTQPPSASGTPGQRVTISCTGSSSNIGAGYNVYWYQQLPGTAPKLLIYGNINRPSGVPDRFSGSKSGTSASLAISGLRSEDEADYYCAAWDKSISGLVFGGGTKLTVL
- CD83+ (%) of mDC, agonist at 2 µg/mL (control group 81.00): 95.7%
- IL-12p70 (pg/mL), agonist at 2 µg/mL (control group 50.0): 1470 pg/mL
